Starred links: 1 amine or outer side, 2 acyl side, 3 side chain; linkers in the order of their positions; H or OH if unused. Non-standard residues stand in square brackets, D forms with d. Groups on a side chain read outwards from the residue. No end group written: not given here. *: point of attachment. C15 diacid = O=C(O)CCCCCCCCCCCCCC(=O)*; γGlu = O=C(O)[C@H](CCC(=O)[*:2])N[*:1]; NMeY = CN[C@@H](Cc1ccc(O)cc1)C(=O)O; AEEA = NCCOCCOCC(=O)O; Aib = CC(C)(N)C(=O)O

One experiment addresses human plasma proteins. Put plainly: plasma protein binding, ultracentrifugation of spiked plasma, LC-MS/MS.
Experiment [1] has as its target full-length human GLP-1R with an N-terminal FLAG tag (human, UniProt P43220 24-463). As to the kind of experiment: cell-based or functional assay.
Experiment [2] has as its target T1, full-length human GIPR with an N-terminal FLAG tag (human, UniProt P48546 22-466).
T1 sequence (looked up): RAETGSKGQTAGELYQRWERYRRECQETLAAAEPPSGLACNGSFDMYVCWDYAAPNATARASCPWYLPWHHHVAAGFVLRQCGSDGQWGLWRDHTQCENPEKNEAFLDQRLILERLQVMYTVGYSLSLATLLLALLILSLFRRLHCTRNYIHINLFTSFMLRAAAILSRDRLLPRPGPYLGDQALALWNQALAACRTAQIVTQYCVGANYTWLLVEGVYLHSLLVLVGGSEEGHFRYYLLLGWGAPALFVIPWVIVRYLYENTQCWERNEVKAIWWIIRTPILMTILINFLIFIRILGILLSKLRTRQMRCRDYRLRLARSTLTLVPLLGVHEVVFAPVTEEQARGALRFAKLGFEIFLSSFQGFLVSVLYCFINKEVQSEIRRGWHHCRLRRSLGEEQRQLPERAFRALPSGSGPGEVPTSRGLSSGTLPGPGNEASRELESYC
As to the kind of experiment: cell-based or functional assay.

A further experiment addresses dog plasma proteins. Put plainly: plasma protein binding, ultracentrifugation of spiked plasma, LC-MS/MS.

B1: Compound 24 (peptide)
peptide: [NMeY][Aib]EGTFISDYSIALDR[Aib]AQ[Aib]K([AEEA-γGlu-γGlu-γGlu-C15 diacid])FVNWLLAQK-NH2
modifications: N-terminus assumed
SMILES: CC[C@H](C)[C@H](NC(=O)[C@H](CO)NC(=O)[C@H](Cc1ccc(O)cc1)NC(=O)[C@H](CC(=O)O)NC(=O)[C@H](CO)NC(=O)[C@@H](NC(=O)[C@H](Cc1ccccc1)NC(=O)[C@@H](NC(=O)CNC(=O)[C@H](CCC(=O)O)NC(=O)C(C)(C)NC(=O)[C@H](Cc1ccc(O)cc1)NC)[C@@H](C)O)[C@@H](C)CC)C(=O)N[C@@H](C)C(=O)N[C@@H](CC(C)C)C(=O)N[C@@H](CC(=O)O)C(=O)N[C@@H](CCCNC(=N)N)C(=O)NC(C)(C)C(=O)N[C@@H](C)C(=O)N[C@@H](CCC(N)=O)C(=O)NC(C)(C)C(=O)N[C@@H](CCCCNC(=O)COCCOCCNC(=O)CC[C@H](NC(=O)CC[C@H](NC(=O)CC[C@H](NC(=O)CCCCCCCCCCCCCC(=O)O)C(=O)O)C(=O)O)C(=O)O)C(=O)N[C@@H](Cc1ccccc1)C(=O)N[C@H](C(=O)N[C@@H](CC(N)=O)C(=O)N[C@@H](Cc1c[nH]c2ccccc12)C(=O)N[C@@H](CC(C)C)C(=O)N[C@@H](CC(C)C)C(=O)N[C@@H](C)C(=O)N[C@@H](CCC(N)=O)C(=O)N[C@@H](CCCCN)C(N)=O)C(C)C
B1 displayed a Human PPB (Fu,plasma), fraction unbound (fraction unbound) with human plasma proteins of 0.0512.

B2: Compound 29 (peptide)
peptide: [NMeY][Aib]EGTFISDYSIALDR[Aib]AQ[Aib]K([AEEA-γGlu-γGlu-γGlu-C15 diacid])FVNWLL[Aib]QK-NH2
modifications: N-terminus assumed
SMILES: CC[C@H](C)[C@H](NC(=O)[C@H](CO)NC(=O)[C@H](Cc1ccc(O)cc1)NC(=O)[C@H](CC(=O)O)NC(=O)[C@H](CO)NC(=O)[C@@H](NC(=O)[C@H](Cc1ccccc1)NC(=O)[C@@H](NC(=O)CNC(=O)[C@H](CCC(=O)O)NC(=O)C(C)(C)NC(=O)[C@H](Cc1ccc(O)cc1)NC)[C@@H](C)O)[C@@H](C)CC)C(=O)N[C@@H](C)C(=O)N[C@@H](CC(C)C)C(=O)N[C@@H](CC(=O)O)C(=O)N[C@@H](CCCNC(=N)N)C(=O)NC(C)(C)C(=O)N[C@@H](C)C(=O)N[C@@H](CCC(N)=O)C(=O)NC(C)(C)C(=O)N[C@@H](CCCCNC(=O)COCCOCCNC(=O)CC[C@H](NC(=O)CC[C@H](NC(=O)CC[C@H](NC(=O)CCCCCCCCCCCCCC(=O)O)C(=O)O)C(=O)O)C(=O)O)C(=O)N[C@@H](Cc1ccccc1)C(=O)N[C@H](C(=O)N[C@@H](CC(N)=O)C(=O)N[C@@H](Cc1c[nH]c2ccccc12)C(=O)N[C@@H](CC(C)C)C(=O)N[C@@H](CC(C)C)C(=O)NC(C)(C)C(=O)N[C@@H](CCC(N)=O)C(=O)N[C@@H](CCCCN)C(N)=O)C(C)C
On to B2, for which the Human PPB (Fu,plasma), fraction unbound (fraction unbound) with human plasma proteins was found to be 0.018. In experiment [1], the “Human GLP1R cAMP HEK293T EC50” value is 47.1 nM. In experiment [2], the “Human GIPR cAMP, HEK293T EC50” value turned out to be 0.0001 nM.

B3: Compound 17 (peptide)
peptide: [NMeY][Aib]EGTFISDYSIALDR[Aib]K([AEEA-AEEA-γGlu-γGlu-C15 diacid])Q[Aib]NFVNWLLAQSPSSGAPPPS-NH2
modifications: N-terminus assumed
SMILES: CC[C@H](C)[C@H](NC(=O)[C@H](CO)NC(=O)[C@H](Cc1ccc(O)cc1)NC(=O)[C@H](CC(=O)O)NC(=O)[C@H](CO)NC(=O)[C@@H](NC(=O)[C@H](Cc1ccccc1)NC(=O)[C@@H](NC(=O)CNC(=O)[C@H](CCC(=O)O)NC(=O)C(C)(C)NC(=O)[C@H](Cc1ccc(O)cc1)NC)[C@@H](C)O)[C@@H](C)CC)C(=O)N[C@@H](C)C(=O)N[C@@H](CC(C)C)C(=O)N[C@@H](CC(=O)O)C(=O)N[C@@H](CCCNC(=N)N)C(=O)NC(C)(C)C(=O)N[C@@H](CCCCNC(=O)COCCOCCNC(=O)COCCOCCNC(=O)CC[C@H](NC(=O)CC[C@H](NC(=O)CCCCCCCCCCCCCC(=O)O)C(=O)O)C(=O)O)C(=O)N[C@@H](CCC(N)=O)C(=O)NC(C)(C)C(=O)N[C@@H](CC(N)=O)C(=O)N[C@@H](Cc1ccccc1)C(=O)N[C@H](C(=O)N[C@@H](CC(N)=O)C(=O)N[C@@H](Cc1c[nH]c2ccccc12)C(=O)N[C@@H](CC(C)C)C(=O)N[C@@H](CC(C)C)C(=O)N[C@@H](C)C(=O)N[C@@H](CCC(N)=O)C(=O)N[C@@H](CO)C(=O)N1CCC[C@H]1C(=O)N[C@@H](CO)C(=O)N[C@@H](CO)C(=O)NCC(=O)N[C@@H](C)C(=O)N1CCC[C@H]1C(=O)N1CCC[C@H]1C(=O)N1CCC[C@H]1C(=O)N[C@@H](CO)C(N)=O)C(C)C
The molecule B3 registered a Dog PPB (Fu,plasma), fraction unbound (fraction unbound) with dog plasma proteins of 0.0675. The molecule also showed a Human PPB (Fu,plasma), fraction unbound (fraction unbound) with human plasma proteins of 0.064.

B4: Compound 22 (peptide)
peptide: [NMeY][Aib]EGTFISDYSIAK([AEEA-AEEA-γGlu-γGlu-C15 diacid])DR[Aib]AQ[Aib]NFVNWLLAQK-NH2
modifications: N-terminus assumed
SMILES: CC[C@H](C)[C@H](NC(=O)[C@H](CO)NC(=O)[C@H](Cc1ccc(O)cc1)NC(=O)[C@H](CC(=O)O)NC(=O)[C@H](CO)NC(=O)[C@@H](NC(=O)[C@H](Cc1ccccc1)NC(=O)[C@@H](NC(=O)CNC(=O)[C@H](CCC(=O)O)NC(=O)C(C)(C)NC(=O)[C@H](Cc1ccc(O)cc1)NC)[C@@H](C)O)[C@@H](C)CC)C(=O)N[C@@H](C)C(=O)N[C@@H](CCCCNC(=O)COCCOCCNC(=O)COCCOCCNC(=O)CC[C@H](NC(=O)CC[C@H](NC(=O)CCCCCCCCCCCCCC(=O)O)C(=O)O)C(=O)O)C(=O)N[C@@H](CC(=O)O)C(=O)N[C@@H](CCCNC(=N)N)C(=O)NC(C)(C)C(=O)N[C@@H](C)C(=O)N[C@@H](CCC(N)=O)C(=O)NC(C)(C)C(=O)N[C@@H](CC(N)=O)C(=O)N[C@@H](Cc1ccccc1)C(=O)N[C@H](C(=O)N[C@@H](CC(N)=O)C(=O)N[C@@H](Cc1c[nH]c2ccccc12)C(=O)N[C@@H](CC(C)C)C(=O)N[C@@H](CC(C)C)C(=O)N[C@@H](C)C(=O)N[C@@H](CCC(N)=O)C(=O)N[C@@H](CCCCN)C(N)=O)C(C)C
In turn, B4 gave a Human PPB (Fu,plasma), fraction unbound (fraction unbound) in the experiment with human plasma proteins of 0.0413.

B5: Compound 18 (peptide)
peptide: [NMeY][Aib]EGTFISDYSIAK([γGlu-γGlu-γGlu-C15 diacid])DR[Aib]AQ[Aib]NFVNWLLAQSPSSGAPPPS-NH2
modifications: N-terminus assumed
SMILES: CC[C@H](C)[C@H](NC(=O)[C@H](CO)NC(=O)[C@H](Cc1ccc(O)cc1)NC(=O)[C@H](CC(=O)O)NC(=O)[C@H](CO)NC(=O)[C@@H](NC(=O)[C@H](Cc1ccccc1)NC(=O)[C@@H](NC(=O)CNC(=O)[C@H](CCC(=O)O)NC(=O)C(C)(C)NC(=O)[C@H](Cc1ccc(O)cc1)NC)[C@@H](C)O)[C@@H](C)CC)C(=O)N[C@@H](C)C(=O)N[C@@H](CCCCNC(=O)CC[C@H](NC(=O)CC[C@H](NC(=O)CC[C@H](NC(=O)CCCCCCCCCCCCCC(=O)O)C(=O)O)C(=O)O)C(=O)O)C(=O)N[C@@H](CC(=O)O)C(=O)N[C@@H](CCCNC(=N)N)C(=O)NC(C)(C)C(=O)N[C@@H](C)C(=O)N[C@@H](CCC(N)=O)C(=O)NC(C)(C)C(=O)N[C@@H](CC(N)=O)C(=O)N[C@@H](Cc1ccccc1)C(=O)N[C@H](C(=O)N[C@@H](CC(N)=O)C(=O)N[C@@H](Cc1c[nH]c2ccccc12)C(=O)N[C@@H](CC(C)C)C(=O)N[C@@H](CC(C)C)C(=O)N[C@@H](C)C(=O)N[C@@H](CCC(N)=O)C(=O)N[C@@H](CO)C(=O)N1CCC[C@H]1C(=O)N[C@@H](CO)C(=O)N[C@@H](CO)C(=O)NCC(=O)N[C@@H](C)C(=O)N1CCC[C@H]1C(=O)N1CCC[C@H]1C(=O)N1CCC[C@H]1C(=O)N[C@@H](CO)C(N)=O)C(C)C
Turning to B5, the Dog PPB (Fu,plasma), fraction unbound (fraction unbound) with dog plasma proteins turned out to be 0.0517. Also, the Human PPB (Fu,plasma), fraction unbound (fraction unbound) with human plasma proteins came to 0.0588.

B6: Compound 30 (peptide)
peptide: [NMeY][Aib]EGTFISDYSIAK([Gly-Gly-Glu-Glu-Glu-C15 diacid])DR[Aib]AQ[Aib]NFVNWLLAQK-NH2
modifications: not fully specified
In the case of B6, the Human PPB (Fu,plasma), fraction unbound (fraction unbound) in the experiment with human plasma proteins came out at 0.0407.

B7: Compound 19 (peptide)
peptide: [NMeY][Aib]EGTFISDYSI[Aib]K([AEEA-AEEA-γGlu-γGlu-C15 diacid])DR[Aib]AQ[Aib]NFVNWLLAQRPSSGAPPPS-NH2
modifications: N-terminus assumed
SMILES: CC[C@H](C)[C@H](NC(=O)[C@H](Cc1ccccc1)NC(=O)[C@@H](NC(=O)CNC(=O)[C@H](CCC(=O)O)NC(=O)C(C)(C)NC(=O)[C@H](Cc1ccc(O)cc1)NC)[C@@H](C)O)C(=O)N[C@@H](CO)C(=O)N[C@@H](CC(=O)O)C(=O)N[C@@H](Cc1ccc(O)cc1)C(=O)N[C@@H](CO)C(=O)N[C@H](C(=O)NC(C)(C)C(=O)N[C@@H](CCCCNC(=O)COCCOCCNC(=O)COCCOCCNC(=O)CC[C@H](NC(=O)CC[C@H](NC(=O)CCCCCCCCCCCCCC(=O)O)C(=O)O)C(=O)O)C(=O)N[C@@H](CC(=O)O)C(=O)N[C@@H](CCCNC(=N)N)C(=O)NC(C)(C)C(=O)N[C@@H](C)C(=O)N[C@@H](CCC(N)=O)C(=O)NC(C)(C)C(=O)N[C@@H](CC(N)=O)C(=O)N[C@@H](Cc1ccccc1)C(=O)N[C@H](C(=O)N[C@@H](CC(N)=O)C(=O)N[C@@H](Cc1c[nH]c2ccccc12)C(=O)N[C@@H](CC(C)C)C(=O)N[C@@H](CC(C)C)C(=O)N[C@@H](C)C(=O)N[C@@H](CCC(N)=O)C(=O)N[C@@H](CCCNC(=N)N)C(=O)N1CCC[C@H]1C(=O)N[C@@H](CO)C(=O)N[C@@H](CO)C(=O)NCC(=O)N[C@@H](C)C(=O)N1CCC[C@H]1C(=O)N1CCC[C@H]1C(=O)N1CCC[C@H]1C(=O)N[C@@H](CO)C(N)=O)C(C)C)[C@@H](C)CC
Take B7: the Dog PPB (Fu,plasma), fraction unbound (fraction unbound) in the experiment with dog plasma proteins came to 0.0361. The same molecule showed a Human PPB (Fu,plasma), fraction unbound (fraction unbound) with human plasma proteins of 0.0321.

Source of the values: patent US20220227830A1, “QD DOSING OF GIP RECEPTOR AGONIST PEPTIDE COMPOUNDS AND USES THEREOF” (Takeda Pharmaceutical Company Limited, priority 2020, published 2022).
